In patent publication US7939292B2, “Modified heparinase III and methods of sequencing therewith” (Massachusetts Institute of Technology, priority 2000, dated 2011):

Legend:
B16BL6 cells [1] = experiment: FGF-induced proliferation of B16BL6 cells in vitro; type: cell-based
Akt = Akt activation in B16BL6 tumor; parameters: species or system mice; details: mouse, in vivo
Method: f. Effect of heparinase treatment on Akt activation. The primary tumor was treated and processed as described above. Akt antibody and phospho-Akt antibody from New England Biolabs were used to probe the immunoblot.

B16BL6 melanoma cells = experiment: Lung metastasis of heparinase treated B16BL6 cells after tail vein injection; type: in vivo, mice; details: cells treated 30 min at 37° C. before tail vein injection; 13 days
Method: We next investigated the ability of heparinase treated B16BL6 melanoma cells to metastasize to the lungs. B16BL6 cells in log growth phase were briefly trypsinized and resuspended in PBS to a final concentration of 1×10^6 per ml. Prior to injection, cells were treated with either PBS, hep I […] or hep III […] for 30 min. at 37° C. 0.2 ml cell suspensions (2×10^5 cells) were injected slowly via tail vein. Mice were sacrificed 13 days later and lungs were harvested, rinsed with tap water. The number of nodules on lung surface were counted with the assistance of a dissection microscope. * indicates p<0.05 (Mann-Whitney test).

B16BL6 cells [2] = experiment: Growth in mice of B16BL6 cells after heparinase removal of the HLGAG coat; type: in vivo; details: HLGAG coat removed
Description: There are two possible mechanisms by which heparinase may be acting on tumor cells. For instance, heparinase III treatment of cells may result in cells losing their unique surface HLGAG coat and this directly or indirectly may impinge on their ability to grow or metastasize. On the other hand heparinase III treatment of cells may also result in the generation of distinct HLGAG fragments, and these fragments could then directly or indirectly modulate tumor cell function. It was thought that heparinase III may function though either one of these mechanisms or through some combination of these mechanisms. To investigate the mechanisms of action further, we treated B16BL6 cells with either heparinases I or III, to remove the HLGAG coat on the tumor cell surface.
In further support of this conclusion ex vivo digestion of the HLGAG coat present on tumor cells with either heparinase, followed by centrifugation and resuspension in PBS to remove the enzyme and HLGAG fragments released from the cell surface, prior to in vivo injection results in the cells being functionally identical to controls. Thus the released tumor cell HLGAG fragments appear to play the key role in modulating tumor growth and metastasis.

Erk-1, 2 = experiment: Total and phosphorylated Erk-1, 2 in heparinase-treated B16BL6 tumor; parameters: species or system mice; details: mouse, in vivo
Method: e. Level of total and phosphorylated Erk-1, 2 in heparinase-treated B16BL6 tumor. Tumor homogenates were prepared and processed as described in c. The supernatant was used for total protein concentration assay and immunoblotting. The immunoblot was detected as described in a.

FAK = experiment: Activation of FAK in B16BL6 tumor; parameters: species or system mice; details: mouse, in vivo
Description: d. Effect of heparinase treatment on activation of FAK in B16BL6 tumor. The FAK protein was immunoprecipitated with mouse anti-FAK monoclonal antibody (Transduction Laboratories, Lexington, Ky.) according to the procedures described above. The phosphorylated FAK was detected using phosphotyrosine specific antibody RC20.

B16BL6 melanoma = experiment: Histological examination of tumor samples (apoptosis, TdT labeling); type: in vivo, mice
Method: Immunohistochemistry was done as described (Parangi et al., 1996; O'Reilly et al., 1994) with minor modifications. Briefly, tumor tissues were fixed in either 4% (vol/vol) formaldehyde overnight for von Willebrand factor (vWF) staining and terminal deoxynucleotide transferase (TdT) labeling or in Glyo-Fixx solution overnight for Ki-67 nuclear antigen staining. Tissues were embedded in paraffin according to standard histological procedures. For vWF staining, sections (5 μm thick) were incubated with 0.2 N HCl for 10 min. autoclaved in a Coplin jar immersed with Target retrieval Solution (Dako) for 15 min. and permeabilized with 2 μg/ml proteinase K at 37° C. for 15 min. Sections were incubated with rabbit anti-human vWF antibody coupled with horseradish peroxidase (HRP) (Dako). Positive staining was detected by substrate reaction with diaminobenzidine. Sections were counterstained with Gill's hematoxylin and mounted in Permount (Fisher). […] Capillary density was determined by counting the number of vWF-positive capillaries per high power field (HPF, ×200). The proliferative and apoptotic indices of tumor cells within areas of viable tumor were estimated from the percentage of cells scored under a light microscope at 400-fold magnification. A minimum of 2000 cells were counted in each animal. # indicates standard error.

LLC cells = experiment: Lung metastasis of LLC cells injected through tail vein; type: in vivo, mice; details: cells incubated with enzyme before tail vein injection
Method: (§1) To ensure that these observations were not limited to the tumor model chosen, hep III was used to treat mice bearing Lewis lung carcinoma (LLC) tumors. Growth curves of primary tumor growth for LLC tumor in C57BL/6 mice treated with either PBS or heparinase III were plotted. 4×10^5 log phase LLC cells were injected subcutaneously to the flank of mice on day 1. Daily injection of 0.1 ml of either PBS or 2 mg/ml recombinantly expressed heparinase III started at the day 4 and continued throughout the experiment. At day 8, osmotic pumps (100 μl capacity delivering at 0.5 μl per hour) containing PBS or 3 mg/ml hep III were implanted subcutaneously at a place remote from the tumor site. Mice were sacrificed at day 20. Lung metastasis of LLC cells injected through tail vein were quantitated as number of lung nodules. Log growth LLC cells were trypsinized for 30 seconds and resuspended in PBS to a final concentration of 1×10^6 per ml. For experimental group, cells were incubated with […] hep III for 30 minutes at 37° C. before injecting 0.2 ml of cell suspension via tail vein. Mice were euthanized 12 days after tail vein injections, lungs were harvested, rinsed in tap water and fixed overnight in Bouin's solution. The number of nodules on lung surface was counted with the aid of a dissection microscope.

[3] = test system: Lewis lung carcinoma (LLC) tumors; experiment: Primary tumor growth of Lewis lung carcinoma (LLC) in mice; type: in vivo; details: 12 mg/kg per day
Method: as §1

level of activated Erk-1, 2 in primary tumor (Erk-1, 2): lower level of activated Erk-1, 2
B1: heparinase III: HLGAG degrading enzyme from Flavobacterium heparinum (EC 4.2.2.8), SEQ ID NO:2; cleaves heparan sulfate (protein, listed as Pedobacter heparinus)
chain: MTTKIFKRIIVFAVIALSSGNILAQSSSITRKDFDHINLEYSGLEKVNKAVAAGNYDDAAKALLAYYREKSKAREPDFSNAEKPADIRQPIDKVTREMADKALVHQFQPHKGYGYFDYGKDINWQMWPVKDNEVRWQLHRVKWWQAMALVYHATGDEKYAREWVYQYSDWARKNPLGLSQDNDKFVWRPLEVSDRVQSLPPTFSLFVNSPAFTPAFLMEFLNSYHQQADYLSTHYAEQGNHRLFEAQRNLFAGVSFPEFKDSPRWRQTGISVLNTEIKKQVYADGMQFELSPIYHVAAIDIFLKAYGSAKRVNLEKEFPQSYVQTVENMIMALISISLPDYNTPMFGDSWITDKNFRMAQFASWARVFPANQAIKYFATDGKQGKAPNFLSKALSNAGFYTFRSGWDKNATVMVLKASPPGEFHAQPDNGTFELFIKGRNFTPDAGVFVYSGDEAIMKLRNWYRQTRIHSTLTLDNQNMVITKARQNKWETGNNLDVLTYTNPSYPNLDHQRSVLFINKKYFLVIDRAIGEATGNLGVHWQLKEDSNPVFDKTKNRVYTTYRDGNNLMIQSLNADRTSLNEEEGKVSYVYNKELKRPAFVFEKPKKNAGTQNFVSIVYPYDGQKAPEISIRENKGNDFEKGKLNLTLTINGKQQLVLVP
FGF-induced proliferation of B16BL6 cells (B16BL6 cells [1]): inhibit FGF-induced proliferation
activation of Akt in tumor (Akt): no change in activation of Akt
ability of treated B16BL6 cells to metastasize to the lungs compared to PBS treated cells (B16BL6 melanoma cells): significantly less able to metastasize to the lungs
ability of treated B16BL6 cells to grow in mice compared to untreated cells (B16BL6 cells [2]): no effect
FAK activation in tumor (FAK): inhibited FAK activation
apoptosis in tumor samples, enzyme treated tumors (B16BL6 melanoma): increased apoptosis
colonization of lungs by LLC cells (LLC cells): inhibited the LLC cells to colonize in the lungs
LLC tumor growth [3]: inhibition in tumor growth
